Results as given in patent US20230002480A1.

How the values were obtained:
Assay in all cases: cell-based or functional assay
[1] = biological target: HIV-1 Env of pseudovirus T251-18 (HIV-1)
[2] = biological target: HIV-1 Env of pseudovirus P1981_C5_3 (HIV-1)
[3] = biological target: HIV-1 Env of pseudovirus 6545.v4.c1 (HIV-1)
[4] = biological target: HIV-1 Env of pseudovirus R2184.c04 (HIV-1)
[5] = biological target: HIV-1 Env of pseudovirus C2101.c01 (HIV-1)
[6] = biological target: HIV-1 Env of pseudovirus BJOX025000.01.1 (HIV-1)
[7] = biological target: HIV-1 Env of pseudovirus BJOX015000.11.5 (HIV-1)
[8] = biological target: HIV-1 Env of pseudovirus 6811.v7.c18 (HIV-1)
[9] = biological target: HIV-1 Env of pseudovirus 9004SS_A3_4 (HIV-1)
[10] = biological target: HIV-1 Env of pseudovirus 231965.c01 (HIV-1)
[11] = biological target: HIV-1 Env of pseudovirus C3347.c11 (HIV-1)
[12] = biological target: HIV-1 Env of pseudovirus 6480.v4.c25 (HIV-1)
[13] = biological target: HIV-1 Env of pseudovirus 3365.v2.c2 (HIV-1)
[14] = biological target: HIV-1 Env of pseudovirus X2131_C1_B5 (HIV-1)
[15] = biological target: HIV-1 Env of pseudovirus 6952.v1.c20 (HIV-1)
[16] = biological target: HIV-1 Env of pseudovirus C1080.c03 (HIV-1)
[17] = biological target: HIV-1 Env of pseudovirus 3301.v1.c24 (HIV-1)
[18] = biological target: HIV-1 Env of pseudovirus Q769.d22 (HIV-1)
[19] = biological target: HIV-1 Env of pseudovirus SC422661.8 (HIV-1)
[20] = biological target: HIV-1 Env of pseudovirus Ce2010_F5 (HIV-1)
[21] = biological target: HIV-1 Env of pseudovirus CAP210.2.00.E8 (HIV-1)
[22] = biological target: HIV-1 Env of pseudovirus HIV-16055-2.3 (HIV-1)
[23] = biological target: HIV-1 Env of pseudovirus Ce0393_C3 (HIV-1)
[24] = biological target: HIV-1 Env of pseudovirus Ce1086_B2 (HIV-1)
[25] = biological target: HIV-1 Env of pseudovirus ZM109F.PB4 (HIV-1)
[26] = biological target: HIV-1 Env of pseudovirus 249M B10 (HIV-1)
[27] = biological target: HIV-1 Env of pseudovirus TRJO4551.58 (HIV-1)
[28] = biological target: HIV-1 Env of pseudovirus 62357_14_D3_4589 (HIV-1)
[29] = biological target: HIV-1 Env of pseudovirus 1056_10_TA11_1826 (HIV-1)
[30] = biological target: HIV-1 Env of pseudovirus ZM197M.PB7 (HIV-1)
[31] = biological target: HIV-1 Env of pseudovirus WITO4160.33 (HIV-1)
[32] = biological target: HIV-1 Env of pseudovirus ZM53M.PB12 (HIV-1)
[33] = biological target: HIV-1 Env of pseudovirus ZM249M.PL1 (HIV-1)
[34] = biological target: HIV-1 Env of pseudovirus BF1266.431a (HIV-1)
[35] = biological target: HIV-1 Env of pseudovirus Ce0682_E4 (HIV-1)

Question: With N49P11 (antibody) as the substance, how does the IC50 [1] read?
Answer: 3.05 µg/mL

Question: What about the IC80 [1] of the same substance?
Answer: 16.7 µg/mL

Question: What about the MPI [1] of the same substance?
Answer: 100

Question: What about the IC50 [2] of the same substance?
Answer: 5.29 µg/mL

Question: And the IC80 [2]?
Answer: 16.5 µg/mL

Question: What about the MPI [2] of the same substance?
Answer: 100

Question: What about the IC50 [3] of the same substance?
Answer: 6.47 µg/mL

Question: What about the IC80 [3] of the same substance?
Answer: 22.9 µg/mL

Question: And the MPI [3]?
Answer: 100

Question: What about the IC50 [4] of the same substance?
Answer: 0.034 µg/mL

Question: And the IC80 [4]?
Answer: 0.12 µg/mL

Question: What about the MPI [4] of the same substance?
Answer: 100

Question: What about the IC50 [5] of the same substance?
Answer: 0.084 µg/mL

Question: What about the IC80 [5] of the same substance?
Answer: 0.505 µg/mL

Question: What about the MPI [5] of the same substance?
Answer: 100

Question: And the IC50 [6]?
Answer: 0.361 µg/mL

Question: And the IC80 [6]?
Answer: 2.58 µg/mL

Question: What about the MPI [6] of the same substance?
Answer: 100

Question: What about the IC50 [7] of the same substance?
Answer: 0.288 µg/mL

Question: What about the IC80 [7] of the same substance?
Answer: 1.28 µg/mL

Question: And the MPI [7]?
Answer: 100

Question: What about the IC50 [8] of the same substance?
Answer: 3.68 µg/mL

Question: And the IC80 [8]?
Answer: 14.6 µg/mL

Question: And the MPI [8]?
Answer: 100

Question: And the IC50 [9]?
Answer: 0.296 µg/mL

Question: And the IC80 [9]?
Answer: 3.24 µg/mL

Question: And the MPI [9]?
Answer: 100

Question: And the IC50 [10]?
Answer: 9.78 µg/mL

Question: And the IC80 [10]?
Answer: 24.2 µg/mL

Question: What about the MPI [10] of the same substance?
Answer: 100

Question: What about the IC50 [11] of the same substance?
Answer: 0.055 µg/mL

Question: And the IC80 [11]?
Answer: 0.192 µg/mL

Question: And the MPI [11]?
Answer: 100

Question: And the IC50 [12]?
Answer: 0.227 µg/mL

Question: And the IC80 [12]?
Answer: 1.03 µg/mL

Question: What about the MPI [12] of the same substance?
Answer: 100

Question: What about the IC50 [13] of the same substance?
Answer: 0.064 µg/mL

Question: What about the IC80 [13] of the same substance?
Answer: 0.452 µg/mL

Question: What about the MPI [13] of the same substance?
Answer: 100

Question: And the IC50 [14]?
Answer: 5.36 µg/mL

Question: And the IC80 [14]?
Answer: 18.4 µg/mL

Question: What about the MPI [14] of the same substance?
Answer: 100

Question: And the IC50 [15]?
Answer: 6.57 µg/mL

Question: What about the IC80 [15] of the same substance?
Answer: 22.7 µg/mL

Question: What about the MPI [15] of the same substance?
Answer: 100

Question: And the IC50 [16]?
Answer: 0.162 µg/mL

Question: And the IC80 [16]?
Answer: 1.45 µg/mL

Question: What about the MPI [16] of the same substance?
Answer: 100

Question: And the IC50 [17]?
Answer: 1.98 µg/mL

Question: And the IC80 [17]?
Answer: 15.7 µg/mL

Question: What about the MPI [17] of the same substance?
Answer: 100

Question: Which results are given for VRC01 (antibody)?
Answer: IC80, titer in TZM.bl cells [1]: 11.2 µg/mL; IC50, titer in TZM.bl cells [18]: 0.08 µg/mL; IC80, titer in TZM.bl cells [18]: 0.29 µg/mL; IC50, titer in TZM.bl cells [2]: 0.46 µg/mL; IC80, titer in TZM.bl cells [2]: 1.26 µg/mL; IC50, titer in TZM.bl cells [19]: 0.08 µg/mL; IC80, titer in TZM.bl cells [19]: 0.265 µg/mL; IC50, titer in TZM.bl cells [20]: 0.32 µg/mL; IC80, titer in TZM.bl cells [20]: 1.07 µg/mL; IC50, titer in TZM.bl cells [3]: > 50 µg/mL; IC80, titer in TZM.bl cells [3]: > 50 µg/mL; IC50, titer in TZM.bl cells [4]: 0.08 µg/mL; IC80, titer in TZM.bl cells [4]: 0.32 µg/mL; IC50, titer in TZM.bl cells [21]: > 50 µg/mL; IC80, titer in TZM.bl cells [21]: > 50 µg/mL; IC50, titer in TZM.bl cells [5]: 0.36 µg/mL; IC80, titer in TZM.bl cells [5]: 1.17 µg/mL; IC50, titer in TZM.bl cells [22]: 0.08 µg/mL; IC80, titer in TZM.bl cells [22]: 0.26 µg/mL; IC50, titer in TZM.bl cells [23]: 0.62 µg/mL; IC80, titer in TZM.bl cells [23]: 2.37 µg/mL; IC50, titer in TZM.bl cells [24]: 0.42 µg/mL; IC80, titer in TZM.bl cells [24]: 1.44 µg/mL; IC50, titer in TZM.bl cells [25]: 0.13 µg/mL; IC80, titer in TZM.bl cells [25]: 0.75 µg/mL; IC50, titer in TZM.bl cells [26]: 0.13 µg/mL; IC80, titer in TZM.bl cells [26]: 0.46 µg/mL; IC50, titer in TZM.bl cells [27]: 0.08 µg/mL; IC80, titer in TZM.bl cells [27]: 0.21 µg/mL; IC50, titer in TZM.bl cells [28]: 0.96 µg/mL; IC80, titer in TZM.bl cells [28]: 4.68 µg/mL; IC50, titer in TZM.bl cells [8]: 0.09 µg/mL; IC80, titer in TZM.bl cells [8]: 0.26 µg/mL; IC50, titer in TZM.bl cells [10]: 0.34 µg/mL; IC80, titer in TZM.bl cells [10]: 1.2 µg/mL; IC50, titer in TZM.bl cells [29]: 0.92 µg/mL; IC80, titer in TZM.bl cells [29]: 3.28 µg/mL; IC50, titer in TZM.bl cells [30]: 0.36 µg/mL; IC80, titer in TZM.bl cells [30]: 1.6 µg/mL; IC50, titer in TZM.bl cells [31]: 0.15 µg/mL; IC80, titer in TZM.bl cells [31]: 0.41 µg/mL; IC50, titer in TZM.bl cells [32]: 1.3 µg/mL; IC80, titer in TZM.bl cells [32]: 4 µg/mL; IC50, titer in TZM.bl cells [11]: 0.17 µg/mL; IC80, titer in TZM.bl cells [11]: 0.58 µg/mL; IC50, titer in TZM.bl cells [12]: 0.04 µg/mL; IC80, titer in TZM.bl cells [12]: 0.09 µg/mL; IC50, titer in TZM.bl cells [13]: 0.06 µg/mL; IC80, titer in TZM.bl cells [13]: 0.17 µg/mL; IC50, titer in TZM.bl cells [33]: 0.05 µg/mL; IC80, titer in TZM.bl cells [33]: 0.23 µg/mL; IC50, titer in TZM.bl cells [14]: 0.51 µg/mL; IC80, titer in TZM.bl cells [14]: 1.54 µg/mL; IC50, titer in TZM.bl cells [15]: 0.04 µg/mL; IC80, titer in TZM.bl cells [15]: 0.12 µg/mL; IC50, titer in TZM.bl cells [16]: 3.4 µg/mL; IC80, titer in TZM.bl cells [16]: 14.4 µg/mL; IC50, titer in TZM.bl cells [34]: 0.07 µg/mL; IC80, titer in TZM.bl cells [34]: 0.23 µg/mL; IC50, titer in TZM.bl cells [17]: 0.14 µg/mL; IC80, titer in TZM.bl cells [17]: 0.32 µg/mL; IC50, titer in TZM.bl cells [35]: 0.08 µg/mL; IC80, titer in TZM.bl cells [35]: 0.48 µg/mL
